Reference: PMC12496174

Molecular target: BASP1 (brain acid soluble protein 1, CAP23, NAP22) (UniProt Q91XV3)
Experiment: peptide affinity column, brain lysate, LC-MS/MS
Conditions: reference: non-phospho peptide …; sites S351

## PLPPR3 (phospholipid-phosphatase-related protein 3) (from UniProt Q7TPB0) pS351 peptide LKRApSVDVDLLA
  binding against the reference: stronger
